2 molecules from patent US20200282035A1 (MILTENYI BIOTEC B V, published 2020) can be followed below.

Test [1] addresses T1, TSPAN8 (human, UniProt P19075 1-237).
T1 construct: whole, on cells
T1 sequence (looked up): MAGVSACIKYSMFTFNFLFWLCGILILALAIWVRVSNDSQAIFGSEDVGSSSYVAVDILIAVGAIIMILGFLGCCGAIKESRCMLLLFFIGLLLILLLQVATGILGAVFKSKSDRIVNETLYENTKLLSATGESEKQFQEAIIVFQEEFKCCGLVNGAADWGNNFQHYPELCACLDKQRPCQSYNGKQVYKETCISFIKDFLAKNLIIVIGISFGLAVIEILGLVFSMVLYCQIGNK
The experiment in a line: antibody used for staining of human pancreatic cancer cells (flow cytometry, immunohistochemistry; Example 1); told in words only. For orientation: Flow cytometry measures light scatter and fluorescence of single cells or particles in a stream.

The target of test [2] is T2, CD318 (human, UniProt Q9H5V8 30-836).
T2 construct: whole, on cells
T2 sequence (looked up): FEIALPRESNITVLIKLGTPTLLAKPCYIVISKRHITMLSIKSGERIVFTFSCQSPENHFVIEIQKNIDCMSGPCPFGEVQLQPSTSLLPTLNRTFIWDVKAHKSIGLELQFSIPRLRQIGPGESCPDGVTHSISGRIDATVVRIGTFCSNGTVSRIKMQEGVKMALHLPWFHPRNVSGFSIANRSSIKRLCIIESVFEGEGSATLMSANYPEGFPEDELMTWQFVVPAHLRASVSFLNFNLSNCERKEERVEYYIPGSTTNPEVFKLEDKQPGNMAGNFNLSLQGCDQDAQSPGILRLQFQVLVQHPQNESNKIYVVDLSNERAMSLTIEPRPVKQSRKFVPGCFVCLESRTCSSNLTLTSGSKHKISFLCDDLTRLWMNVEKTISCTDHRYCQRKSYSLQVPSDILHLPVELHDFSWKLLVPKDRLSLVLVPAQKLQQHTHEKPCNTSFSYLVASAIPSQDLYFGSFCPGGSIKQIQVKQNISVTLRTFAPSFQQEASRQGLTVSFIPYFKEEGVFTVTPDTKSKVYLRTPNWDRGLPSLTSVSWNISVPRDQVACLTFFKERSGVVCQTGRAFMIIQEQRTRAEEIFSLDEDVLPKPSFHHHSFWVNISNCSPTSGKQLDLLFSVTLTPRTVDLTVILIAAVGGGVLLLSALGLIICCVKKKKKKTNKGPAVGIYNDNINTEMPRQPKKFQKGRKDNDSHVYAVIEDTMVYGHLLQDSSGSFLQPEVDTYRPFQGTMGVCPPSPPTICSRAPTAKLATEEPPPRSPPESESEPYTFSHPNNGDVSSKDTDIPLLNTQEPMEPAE
Described as above.

B1: TSPAN8 specific antibody (antibody, V domains shown)
VH: EVKLLESGGGLVQPGGSMRLSCAASGFTFTDFYMNWIRQPAGKAPEWLGFIRNKASGYTTEYNPSVKGRFTISRDNTQNMLYLQMNTLRAEDTATYYCARAHSYYGYDYFDYWGQGVMVTVSS
VL: DIQMTQSPASLSASLEEIVTITCQASQDIGNWLSWYQQKPGKSPQLLIYGATSLADGVPSRFSGSRSGTQYSLKISRLQVEDIRIYYCLQAYSAPWTFGGGTKLELK
notes: also called TSPAN8 VH
Turning to B1, in test [1], the binding result is “binds”.

B2: CD318 specific antibody (antibody, V domains shown)
VH: EVQLQQSGAELVRPGALVKLSCKASGFNIKDYYIHWVKQRPEQGLEWIGWIDPENGHTIYDPKFQGKASITADTSSNTAYLQLSSLTSEDTAVYYCARLTGTTYAMDYWGQGTSVTVSS
VL: DIVMTQSHKFMSTSVGDRVSITCKASQDVSTAVAWYQQKSGQSPKLLIYWASTRHTGVPDRFTGSGSGTDYTLTISSVQAEDLALYYCQQHYSTPYTFGGGTKLEIK
notes: also called CD318 VH
For the molecule B2, the binding result in test [2] is “binds”.
